Assay results as given in patent publication US20090291899A1 (published 2009).
Where no end group is shown, it is not given here.

Biological target: T1, recombinant human soluble TNF receptor inhibitor/Fc chimera (rHusTNFRI) (human, UniProt P19438 30-211)
T1 construct: Bought from Prospec-Tany TechnoGene; Only the soluble part stood in the assay; also called TNF-R1; immobilised rHusTNFRI; not shown: Fc part of human IgG1; 6x histidine tag on the Fc part
T1 sequence: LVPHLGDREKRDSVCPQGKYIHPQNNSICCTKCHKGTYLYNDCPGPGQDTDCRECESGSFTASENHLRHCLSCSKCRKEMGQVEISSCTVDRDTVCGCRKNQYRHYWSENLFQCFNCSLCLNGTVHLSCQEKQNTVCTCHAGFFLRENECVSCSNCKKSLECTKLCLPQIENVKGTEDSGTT
Test: solid-phase competition ELISA: unlabelled TNF70-80 against 10 µM biotinylated TNF70-80 on immobilised rHusTNFRI

IC50: ~21 µM
Kd: 90 µM
B1: TNF70-80 (Pro-Ser-Thr-His-Val-Leu-Ile-Thr-His-Thr-Ile-OH) (peptide)
peptide: PSTHVLITHTI-OH
notes: 4; also called Peptide A; TNF mimetic peptide
